# From paper PMC8421226, “Structural basis for glucocorticoid receptor recognition of both unmodified and methylated binding sites, precursors of a modern recognition element” (Nucleic Acids Research, 2021)
# B1: GBS (dsDNA)
# DNA 1: TGAGAACAGAGTGTTCTTT
# DNA 2: AAAGAACACTCTGTTCTCA
# B2: 5mC-GBS (dsDNA)
# DNA 1: CCAGAACGGAGCGTTCTGA
# DNA 2: TCAGAACGCTCCGTTCTGG
# modifications: 5mC at CpG; methyl at mC10 of AGAACGGAGCGTTCT (C12 of strand) seen in structure, other positions in Figure 3A
# B3: 5mC-GBS crystal DNA (dsDNA)
# DNA 1: CCAGAACGGAGCGTTCTG
# DNA 2: TCAGAACGCTCCGTTCTG
# modifications: 5mC at CpG (mC10)
# B4: pre-GBS (dsDNA)
# DNA 1: CCAGAACGGAGCGTTCTGA
# DNA 2: TCAGAACGCTCCGTTCTG
# B5: human glucocorticoid receptor DNA-binding domain (domain or fragment)
# chain: PPKLCLVCSDEASGCHYGVLTCGSCKVFFKRAVEGQHNYLCAGRNDCIIDKIRRKNCPACRYRKCLQAGMNLEAR
# notes: Cloned into the pMCSG7 vector; In the crystals two DBD copies sit on one DNA duplex (5mC-GBS or pre-GBS); also called GR DBD; GR; source: E. coli BL21 (DE3) pLysS, purified (His-Trap, gel filtration)
# B6: pre-GBS crystal DNA (dsDNA)
# DNA 1: CCAGAACGGAGCGTTCTG
# DNA 2: TCAGAACGCTCCGTTCTG
# Experiments:
# [1] = system: AncSR2 DBD (reconstructed ancestral); assay: fluorescence polarization; settings: FP: 20 mM Tris-HCl pH 7.4, 150 mM NaCl, 5% glycerol, 10 nM FAM-DNA, 1 nM-50 uM DBD, temperature not stated
# [2] = system: AncGR1 DBD (reconstructed ancestral); assay: fluorescence polarization; settings: FP: 20 mM Tris-HCl pH 7.4, 150 mM NaCl, 5% glycerol, 10 nM FAM-DNA, 1 nM-50 uM DBD, temperature not stated
# [3] = system: AncCR DBD (reconstructed ancestral); assay: fluorescence polarization; settings: FP: 20 mM Tris-HCl pH 7.4, 150 mM NaCl, 5% glycerol, 10 nM FAM-DNA, 1 nM-50 uM DBD, temperature not stated
# [4] = molecular target: T1, GR DBD (human, UniProt P04150 418-493); assay: fluorescence polarization; FP: 20 mM Tris-HCl pH 7.4, 150 mM NaCl, 5% glycerol; 10 nM FAM-DNA, 1 nM-50 uM DBD; temperature not stated; settings: protein: recombinant, tags: 6xHis (pMCSG7 vector), chain copies: 2, label: 5' FAM on strand 1
# [5] = molecular target: T1, GR DBD; assay: X-ray crystallography (2.0 A); DBD dimer; FP: 20 mM Tris-HCl pH 7.4, 150 mM NaCl, 5% glycerol; 10 nM FAM-DNA, 1 nM-50 uM DBD; temperature not stated; settings: protein: recombinant; tags: 6xHis (pMCSG7 vector); chain copies: 2
# [6] = molecular target: the molecule itself; assay: crystal structure; GR DBD with 5mC-GBS or pre-GBS DNA duplex, 2:1 protein:DNA molar ratio; hanging drop vapor diffusion, 50 mM sodium cacodylate pH 6.5, 80 mM calcium chloride, 1% glycerol, 7% or 8.5% PEG 400; dimer of DBD on DNA in the asymmetric unit
# [7] = molecular target: T1, GR DBD; assay: X-ray crystallography (2.5 A); DBD dimer; FP: 20 mM Tris-HCl pH 7.4, 150 mM NaCl, 5% glycerol; 10 nM FAM-DNA, 1 nM-50 uM DBD; temperature not stated; settings: protein: recombinant; tags: 6xHis (pMCSG7 vector); chain copies: 2
# [8] = 5mC at CpG, methyl at mC10 of AGAACGGAGCGTTCT (C12 of strand) seen in structure, other positions in Figure 3A
# T1 sequence (P04150 418-493): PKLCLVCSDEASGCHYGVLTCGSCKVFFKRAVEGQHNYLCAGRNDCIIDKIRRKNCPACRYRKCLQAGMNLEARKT
molecule,measurement,setting,value
CCAGAACGGAGCGTTCTGA / TCAGAACGCTCCGTTCTG [pre-GBS],Kd,[1],811 nM
same,Kd,[2],139 nM
same,Kd,[3],575 nM
CCAGAACGGAGCGTTCTGA (double strand) [5mC-GBS],Kd,[1]; [8],443 nM
same,Kd,[2]; [8],78 nM
same,Kd,[3]; [8],318 nM
B1,Kd,[4]; blunt,73 nM
B2,Kd,[4]; blunt,131 nM
B3,binding result,[5],binds
B4,Kd,"[4]; as printed the second strand lacks its 3' terminal G (5' overhang 1 nt on strand 1), possibly a misprint",206 nM
B5,stoichiometry N,[6],2
B6,binding result,[7],binds
